Numbered stars: 1 amine (or outer) side, 2 acyl side, 3 side chain; on linkers, the order of the positions; unused ones are H or OH. Square brackets hold non-standard residues; d marks the D form. Ends that are not written are not given here. * marks the point of attachment. Cholyl = C[C@H](CCC(=O)*)[C@H]1CC[C@H]2[C@@H]3[C@H](O)C[C@@H]4C[C@H](O)CC[C@]4(C)[C@H]3C[C@H](O)[C@]12C; Deoxycholoyl = C[C@H](CCC(=O)*)[C@H]1CC[C@H]2[C@@H]3CC[C@@H]4C[C@H](O)CC[C@]4(C)[C@H]3C[C@H](O)[C@]12C; Lithocholoyl = C[C@H](CCC(=O)*)[C@H]1CC[C@H]2[C@@H]3CC[C@@H]4C[C@H](O)CC[C@]4(C)[C@H]3CC[C@]12C; Adp = aminoethyldibenzofuranylpropanoic acid, O=C(CCc1cccc2c1oc1c(CCN[*:1])cccc12)[*:2]; iminobiotinyl = N=C1N[C@H]2[C@H](CS[C@H]2CCCCC(=O)*)N1; Tyr(3-I) = N[C@@H](Cc1ccc(O)c(I)c1)C(=O)O; NMeL = CN[C@@H](CC(C)C)C(=O)O; NMeV = CN[C@H](C(=O)O)C(C)C; NANA = N-acetyl neuraminyl; Boc = CC(C)(C)OC(=O)*
Target: natural β-amyloid peptide β-AP1-40 (human)
Sequence (peptide, as listed by the source): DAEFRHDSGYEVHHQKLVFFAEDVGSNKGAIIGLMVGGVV
Experiment: cell-based or functional assay

Binder	% Inhibition of Plateau; nucleation assay; 100 mole % [%]	Fold Increase in Lag Time; nucleation assay; 100 mole % [fold]
iminobiotinyl-DAEFRHDSGYEVHHQ [iminobiotinyl-Aβ1-15]	~0	1.2
Cholyl-KLVFFAEDVGSNKGA [cholyl-Aβ16-30]	100	> 4.5
{NANA}-DAEFRHDSGYEVHHQ [NANA-Aβ1-15]	~0	~1
Cholyl-DAEFRHDSGYEVHHQ [cholyl-Aβ1-15]	100	> 4.5
{NANA}-AEDVGSNKGAIIGLM [NANA-Aβ21-35]	53	~1
{NANA}-SNKGAIIGLMVGGVV [NANA-Aβ26-40]	~0	1.3
Cholyl-EVHHQKLVFFAEDVG [cholyl-Aβ11-25]	~0	1.5
{NANA}-HDSGYEVHHQKLVFF [NANA-Aβ6-20]	64	1.3
Cholyl-AEDVGSNKGAIIGLM [cholyl-Aβ21-35]	51	1.6
Cholyl-SNKGAIIGLMVGGVV [cholyl-Aβ26-40]	87	> 4.5
{NANA}-KLVFFAEDVGSNKGA [NANA-Aβ16-30]	~0	~1

Target: natural β-amyloid peptide β-AP1-40 (human)
Experiment: cell-based or functional assay
Remark: another data set of the same source

Binder	% Iext'n; seeded extension assay; 25 mole % [%]	% Inucl'n; nucleation assay; 100 mole % [%]	ΔLag; nucleation assay; 100 mole % [ratio]
H-DDII[NMeL]VEH[Adp]LKLVFF-OH (SMILES CC[C@H](C)[C@H](NC(=O)[C@H](CC(=O)O)NC(=O)[C@@H](N)CC(=O)O)C(=O)N[C@H](C(=O)N(C)[C@@H](CC(C)C)C(=O)N[C@H](C(=O)N[C@@H](CCC(=O)O)C(=O)N[C@@H](Cc1c[nH]cn1)C(=O)NCCc1cccc2c1oc1c(CCC(=O)N[C@@H](CC(C)C)C(=O)N[C@@H](CCCCN)C(=O)N[C@@H](CC(C)C)C(=O)N[C@H](C(=O)N[C@@H](Cc3ccccc3)C(=O)N[C@@H](Cc3ccccc3)C(=O)O)C(C)C)cccc12)C(C)C)[C@@H](C)CC) [h-DDII(N-Me-Leu)VEH(Adp)-LKLVFF-oh]	7	-29	1.8
Cholyl-LVF[Tyr(3-I)]A-OH [CA-LVF(IY)A-oh]	–	95	> 5
Deoxycholoyl-LVFFA-OH [DeoxyCA-LVFFA-oh]	82	-114	3
Cholyl-[dL][dV][dF][dF][dA]-OH [CA-LVFFA-oh (all D amino acids)]	–	27	2.8
Cholyl-AVAFA-OH (SMILES CC(C)[C@H](NC(=O)[C@H](C)NC(=O)CC[C@@H](C)[C@H]1CC[C@H]2[C@@H]3[C@H](O)C[C@@H]4C[C@H](O)CC[C@]4(C)[C@H]3C[C@H](O)[C@]12C)C(=O)N[C@@H](C)C(=O)N[C@@H](Cc1ccccc1)C(=O)N[C@@H](C)C(=O)O) [CA-AVAFA-oh]	–	-15	1
Cholyl-Gly-Phe-Phe-OH (SMILES C[C@H](CCC(=O)NCC(=O)N[C@@H](Cc1ccccc1)C(=O)N[C@@H](Cc1ccccc1)C(=O)O)[C@H]1CC[C@H]2[C@@H]3[C@H](O)C[C@@H]4C[C@H](O)CC[C@]4(C)[C@H]3C[C@H](O)[C@]12C) [CA-GFF-oh]	–	0	1
Cholyl-FFVL-OH (SMILES CC(C)C[C@H](NC(=O)[C@@H](NC(=O)[C@H](Cc1ccccc1)NC(=O)[C@H](Cc1ccccc1)NC(=O)CC[C@@H](C)[C@H]1CC[C@H]2[C@@H]3[C@H](O)C[C@@H]4C[C@H](O)CC[C@]4(C)[C@H]3C[C@H](O)[C@]12C)C(C)C)C(=O)O) [CA-FFVL-oh]	75	33	4.1
Boc-LVFFA-OH [t-Boc-LVFFA-oh]	–	-5	3
H-DDIII[NMeV]DLL[Adp]HQKLVFF-OH (SMILES CC[C@H](C)[C@H](NC(=O)[C@H](CC(=O)O)NC(=O)[C@@H](N)CC(=O)O)C(=O)N[C@H](C(=O)N[C@H](C(=O)N(C)[C@H](C(=O)N[C@@H](CC(=O)O)C(=O)N[C@@H](CC(C)C)C(=O)N[C@@H](CC(C)C)C(=O)NCCc1cccc2c1oc1c(CCC(=O)N[C@@H](Cc3c[nH]cn3)C(=O)N[C@@H](CCC(N)=O)C(=O)N[C@@H](CCCCN)C(=O)N[C@@H](CC(C)C)C(=O)N[C@H](C(=O)N[C@@H](Cc3ccccc3)C(=O)N[C@@H](Cc3ccccc3)C(=O)O)C(C)C)cccc12)C(C)C)[C@@H](C)CC)[C@@H](C)CC) [h-DDIII(N-Me-Val)DLL(Adp)-HQKLVFF-oh]	0	-75	1.4
Cholyl-Phe-Phe-Val-OH (SMILES CC(C)[C@H](NC(=O)[C@H](Cc1ccccc1)NC(=O)[C@H](Cc1ccccc1)NC(=O)CC[C@@H](C)[C@H]1CC[C@H]2[C@@H]3[C@H](O)C[C@@H]4C[C@H](O)CC[C@]4(C)[C@H]3C[C@H](O)[C@]12C)C(=O)O) [CA-FFV-oh]	7	-33	2.2
Lithocholoyl-LVFFA-OH [LithoCA-LVFFA-oh]	0	-229	2.8
Cholyl-LVFAA-OH (SMILES CC(C)C[C@H](NC(=O)CC[C@@H](C)[C@H]1CC[C@H]2[C@@H]3[C@H](O)C[C@@H]4C[C@H](O)CC[C@]4(C)[C@H]3C[C@H](O)[C@]12C)C(=O)N[C@H](C(=O)N[C@@H](Cc1ccccc1)C(=O)N[C@@H](C)C(=O)N[C@@H](C)C(=O)O)C(C)C) [CA-LVFAA-oh]	–	40	1.6
